Target: inter-alpha-inhibitor (IαI) (human) (UniProt P19827)
Sequence (P19827 whole entry, looked up): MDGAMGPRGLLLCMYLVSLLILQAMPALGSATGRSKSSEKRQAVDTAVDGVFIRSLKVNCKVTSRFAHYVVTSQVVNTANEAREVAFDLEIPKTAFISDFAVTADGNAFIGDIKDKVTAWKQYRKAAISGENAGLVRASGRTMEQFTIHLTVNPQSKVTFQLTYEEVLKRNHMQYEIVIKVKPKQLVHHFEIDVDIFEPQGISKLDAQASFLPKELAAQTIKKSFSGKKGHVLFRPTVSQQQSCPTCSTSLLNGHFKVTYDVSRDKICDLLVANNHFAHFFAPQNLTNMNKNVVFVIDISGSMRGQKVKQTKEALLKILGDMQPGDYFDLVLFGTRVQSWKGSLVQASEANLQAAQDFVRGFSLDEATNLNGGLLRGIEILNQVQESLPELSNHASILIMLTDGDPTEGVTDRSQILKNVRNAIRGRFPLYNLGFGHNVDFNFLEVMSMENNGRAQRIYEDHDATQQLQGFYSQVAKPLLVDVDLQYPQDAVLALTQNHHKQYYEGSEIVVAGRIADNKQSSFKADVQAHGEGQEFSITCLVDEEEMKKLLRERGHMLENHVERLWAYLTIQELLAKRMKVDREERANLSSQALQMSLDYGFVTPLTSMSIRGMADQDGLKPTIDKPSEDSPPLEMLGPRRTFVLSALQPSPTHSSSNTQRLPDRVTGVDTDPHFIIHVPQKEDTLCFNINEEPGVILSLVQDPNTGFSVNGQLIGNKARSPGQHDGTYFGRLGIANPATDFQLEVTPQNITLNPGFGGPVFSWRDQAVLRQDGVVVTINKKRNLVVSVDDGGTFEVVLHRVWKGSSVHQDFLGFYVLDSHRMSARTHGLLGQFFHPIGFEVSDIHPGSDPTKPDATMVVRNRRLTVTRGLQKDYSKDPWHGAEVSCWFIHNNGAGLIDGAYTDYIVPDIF

amount of HC·TSG-6 product with added calcium ions (SDS-PAGE band intensity): 5 % of WT
Substance: Full-length human TSG-6 (rhTSG-6) E183S mutant (from UniProt P98066 18-277) (natural protein)

From publication PMC4661386
